This is an account of results in patent publication US20220380768A1 (TALLAC THERAPEUTICS, published 2022).

Residue numbers refer to the chain shown, from its start.

A word on the Kd: it is the free concentration of one partner at which half of the binding sites on the other are occupied at equilibrium, for simple one-to-one binding. As a reminder, the koff is the first-order rate constant of dissociation. As a reminder, the kon is the second-order rate constant of association.

Assay [1] has as its target T1, human CD22 (d1 to d7 domain according to NP_001762.2) (human, UniProt P20273 20-687).
T1 construct: domain: d1 to d7 domain; also called human CD22-gly; Siglec-2
The experiment in a line: SPR; mAb supernatant captured on protein A chip, human CD22 injected. The method, then: Binding of humanized anti-CD22 antibodies to human CD22 was measured by surface plasmon resonance (SPR). For assessment of binding by SPR, biotinylated protein A (15 μg/mL) was immobilized to the surface of an NLC chip. 30 μL of mAb supernatant was added to 150 μL of PBS-T and captured over the protein A surface. Serial dilutions of human CD22-gly (300 nM, 3× dilution) were injected over the mAb-coated chips, and binding kinetics were determined. Chips were regenerated using 4:1 v/v of Pierce IgG elution butter/4M NaCl.
For orientation: Surface plasmon resonance follows binding to a sensor surface in real time, without labels.

Assay [2] concerns the target T2, human CD22 on B cells of human PBMCs (human, UniProt P20273 20-847).
T2 construct: whole, on cells; also called CD22 on human B cells
The assay can be described thus: flow cytometry; Alexa Fluor 647-labelled antibody on CD20+ B cells of human PBMCs. The method, then: (§1) Binding of humanized anti-CD22 antibodies to human or cynomolgus PBMCs was measured by flow cytometry. Trima residuals were received from Vitalant and cynomolgus monkey whole blood were received from BioIVT. Both were diluted 1:4 with Phosphate Buffered Saline (PBS, Gibco). Diluted blood was split into two tubes and underplayed with 15 mL Ficoll-Paque (GE Healthcare). Tubes were centrifuged for 30 minutes at 400×g. PBMCs were collected from the interface, washed and resuspended in FACS buffer (PBS with 0.5% Bovine Serum Albumin (Gibco)). 100K PBMCs from human and cynomolgus monkey were plated in 96-well plates and pelleted by centrifugation for five minutes at 400×g and stained at 4° C. in 100 μl Fixable Viability Dye eFluor 780 (Thermo Fisher) diluted 1:4000 in PBS. Cells were centrifuged and stained at 4° C. in 100 μl FACS buffer for 30 minutes containing FcR Blocking Reagent (Miltenyi Biotec), anti-CD20 and Alexa Fluor 647 conjugated CD22 binding antibodies, which were labeled using Molecular Probes Alexa Fluor 647 Protein Labeling kit (Molecular Probes) according to manufacturer's protocol. Cells were centrifuged and washed twice in 200 μl FACS buffer and fixed in 100 μl 0.5% paraformaldehyde. Cells were analyzed on Attune NxT Flow Cytometer (Thermo Fisher), with subsequent data analysis by Flowjo 10.7 (Treestar). Dead cells were excluded by gating on the eFluor 780-negative population. CD20+ cells were gated to identify B cells and median fluorescent intensity for CD22 was determined.
For orientation: A flow cytometer gives signals particle by particle.

Assay [3] concerns the target T2, human CD22 on B cells of human PBMCs. The assay can be described thus: flow cytometry; Alexa Fluor 647-labelled antibody, human PBMCs. The procedure:
as §1
(§2) The fold increase in binding was determined by calculating the ratio of CD22 median fluorescent intensity on CD20⁺ over CD20⁻ cells.

Assay [4] has as its target T3, cynomolgus monkey CD22 on B cells of cynomolgus PBMCs (cynomolgus monkey).
T3 construct: whole, on cells; also called cynomolgus CD22; Cyno CD22
The assay can be described thus: flow cytometry; Alexa Fluor 647-labelled antibody, cynomolgus PBMCs. The procedure: as §1, §2

Assay [5] deals with T3, cynomolgus monkey CD22 on B cells of …. The experiment in a line: flow cytometry; Alexa Fluor 647-labelled antibody on CD20+ B cells of cynomolgus PBMCs. The procedure:
as §1

For assay [6], the target named is T1, human CD22 (d1 to d7 domain according …). The experiment in a line: SPR; summary table, column 'CD22 KD (nM)'.
Assay [7] shares this target. The experiment in a line: SPR; purified naked mAb captured on protein A chip, human CD22 injected. The method, then:
To assess if CpG conjugation affects the binding of respective humanized anti-CD22 to human CD22, SPR assay was carried out. […] Briefly, biotinylated protein A (15 μg/mL) was immobilized to the surface of an NLC chip. 30 nM of purified naked mAb or CpG conjugated mAb solution in PBS-T was used for capture over the protein A surface. Serial dilutions of human CD22 (300 nM, 3× dilution) were injected over the mAb-coated chips, and binding kinetics were determined. Chips were regenerated using 4:1 v/v of Pierce IgG elution butter/4M NaCl.

B1: TNT88 (antibody, human IgG1, kappa, V domains shown)
VH: QVQLQESGPGLVKPSDTLSLTCTVSGFAFSIYDMSWIRQPPGKGLEWIAYISSGGGTTYYNPSLKSRVTISVDTSKNQFSLKLSSVTAADTAVYYCARHSGYGTHWGVLFAYWGRGTLVTVSS
VL: DIVMTQTPLSLSVTPGQPASISCRASQDIHGYLNWYQQKPGQSPQLLIYYTSILHSGVPDRFSGSGSGTDFTLKISRVEAEDVGVYFCQQGNTLPWTFGGGTKLEIKR
For the molecule B1, the Kd in assay [1] came out at 1.34 nM; in assay [6] it was 1.3 nM. In addition, the koff in assay [1] was 0.000289 s⁻¹. For the same molecule, the kon in assay [1] came out at 215000 M⁻¹ s⁻¹. Besides, the “CD22 Median Fluorescent Intensity on CD20+ cells” value (shortened to “CD22 Median Fluorescent Intensity”) came to 1530 in assay [2] and 1270 in assay [5]. The “CD22: CD20+/CD20- (ratio of median fluorescent intensity)” value amounted to 26.2 fold in assay [3] and 14.7 fold in assay [4].

B2: TNT71 (antibody, human IgG1, kappa, V domains shown)
VH: EVQLVESGGGLVQPGGSLRLSCAASGFTFSSYEMNWVRQAPGKGLEWVSYISSSGSTIYYADSVKGRFTISRDNAKNSLYLQMNSLRAEDTAVYYCARHSGYGTHWGVLFAYWGRGTLVTVSS
VL: DIQMTQSPSSLSASVGDRVTITCRASQDIHGYLNWYQQKPGKAPKLLIYYTSILHSGVPSRFSGSGSGTDFTLTISSLQPEDFATYFCQQGNTLPWTFGQGTKLEIKR
Take B2: the Kd was determined as 5.2 nM in assay [1], 0.263 nM in assay [7] and 0.3 nM in assay [6]. Also, the figures for the “CD22 Median Fluorescent Intensity” value in assay [2] and in assay [5] were 1460 and 1420, respectively.

B3: TNT77 (antibody, human IgG1, kappa, V domains shown)
VH: EVQLVESGGGLVQPGGSLRLSCAASGFAFSIYDMSWVRQAPGKGLEWVAYISSGGGTTYYPDTVKGRFTISRDNSKNTLYLQMNSLRAEDTAVYYCARHSGYGTHWGVLFAYWGRGTLVTVSS
VL: B2 VL with D28S, H30S, G31S, Y50A, T51A, I53S, H55Q, F87Y
B3: the Kd is 10.2 nM in assay [1] and 10 nM in assay [6]. In addition, the koff in assay [1] is 0.00207 s⁻¹. The kon in assay [1] is 203000 M⁻¹ s⁻¹. Also, the “CD22 Median Fluorescent Intensity” value in assay [2] is 1320; in assay [5], 236. The “CD22: CD20+/CD20- (ratio of median fluorescent intensity)” value stood at 20.9 fold in assay [3] and 2.6 fold in assay [4].

B4: TNT72 (antibody, human IgG1, kappa, V domains shown)
VH: B1 VH
VL: B2 VL
As for B4, the values for the Kd in assay [1], in assay [7] and in assay [6] were 0.655 nM, 0.922 nM and 0.7 nM, respectively. Also, the “CD22 Median Fluorescent Intensity” value came to 1560 in assay [2] and 1370 in assay [5].
